From article PMC9321280 (Nature Communications, 2022)

Target: T1, GFP-fused TcsH CROPs (residues 1832–2618), His-tagged (Paeniclostridium sordellii, UniProt M9ZTT7 1832-2618)
T1 construct: source: Escherichia coli (pET28a vector), purified as His-tagged protein
T1 sequence: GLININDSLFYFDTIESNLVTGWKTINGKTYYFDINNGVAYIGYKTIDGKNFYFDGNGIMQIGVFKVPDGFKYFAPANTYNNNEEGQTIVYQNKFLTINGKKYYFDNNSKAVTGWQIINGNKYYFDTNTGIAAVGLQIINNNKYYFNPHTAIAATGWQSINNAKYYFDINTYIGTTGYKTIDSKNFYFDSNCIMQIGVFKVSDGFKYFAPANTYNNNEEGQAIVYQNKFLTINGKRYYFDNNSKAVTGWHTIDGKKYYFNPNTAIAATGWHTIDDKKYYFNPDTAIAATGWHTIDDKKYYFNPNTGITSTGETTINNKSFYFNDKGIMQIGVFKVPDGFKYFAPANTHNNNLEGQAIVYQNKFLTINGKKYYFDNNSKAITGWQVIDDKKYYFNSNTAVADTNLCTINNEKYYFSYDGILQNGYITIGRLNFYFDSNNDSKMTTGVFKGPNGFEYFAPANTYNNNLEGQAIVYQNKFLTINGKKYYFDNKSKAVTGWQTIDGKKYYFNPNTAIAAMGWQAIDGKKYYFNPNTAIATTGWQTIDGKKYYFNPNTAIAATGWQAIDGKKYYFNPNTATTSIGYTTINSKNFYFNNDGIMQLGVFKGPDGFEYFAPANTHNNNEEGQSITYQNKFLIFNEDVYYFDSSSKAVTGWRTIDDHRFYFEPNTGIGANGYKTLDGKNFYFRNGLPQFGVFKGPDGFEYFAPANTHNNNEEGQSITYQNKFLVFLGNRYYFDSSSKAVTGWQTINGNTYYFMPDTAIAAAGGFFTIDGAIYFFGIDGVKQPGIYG
Assay: BLI
Conditions: both partners purified

B1: Fc-tagged TMPRSS2^106-492/[change] (ectodomain of human TMPRSS2 with [change]) (Fc fusion)
chain: WKFMGSKCSNSGIECDSSGTCINPSNWCDGVSHCPGGEDENRCVRLYGPNFILQVYSSQRKSWHPVCQDDWNENYGRAACRDMGYKNNFYSSQGIVDDSGSTSFMKLNTSAGNVDIYKKLYHSDACSSKAVVSLRCIACGVNLNSSRQSQIVGGESALPGAWPWQVSLHVQNVHVCGGSIITPEWIVTAAHCVEKPLNNPWHWTAFAGILRQSFMFYGAGYQVEKVISHPNYDSKTKNNDIALMKLQKPLTFNDLVKPVCLPNPGMMLQPEQLCWISGWGATEEKGKTSEVLNAAKVLLIETQRCNSRYVYDNLITPAMICAGFLQGNVDSCQGDSGGPLVTSKNNIWWLIGDTSWGSGCAKAYRPGVYGNVMVFTDWIYRQMRADG
  Kd: ~5.23 nM
